Values quoted from earlier work as cited in article PMC7618755.

Legend:
CD80 (Homo sapiens) = CD80 (Homo sapiens) (UniProt P33681)
PD-L1 (Homo sapiens) = PD-L1 (Homo sapiens) (UniProt Q9NZQ7)
Sequence of UniProt Q9NZQ7 (Q9NZQ7 19-238): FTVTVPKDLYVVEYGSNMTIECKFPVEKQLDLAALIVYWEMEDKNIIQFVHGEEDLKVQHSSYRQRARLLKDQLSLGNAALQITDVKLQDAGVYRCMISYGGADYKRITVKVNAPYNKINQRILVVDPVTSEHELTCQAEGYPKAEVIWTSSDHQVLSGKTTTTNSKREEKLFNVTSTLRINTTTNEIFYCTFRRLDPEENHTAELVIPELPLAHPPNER

For CD80 (from UniProt P33681), the Kd (CD80 (Homo sapiens)) is given as 35 µM and the Kd (PD-L1 (Homo sapiens)) is given as 20 µM.
